This test has as its target CD3 on non-edited CD3+ T cells of a human donor (human) (UniProt P07766). Nature of the test: cell-based or functional assay.

Chain of CD3 on non-edited CD3+ T cells of a human donor (human) (P07766 23-207, chain 1 of 3): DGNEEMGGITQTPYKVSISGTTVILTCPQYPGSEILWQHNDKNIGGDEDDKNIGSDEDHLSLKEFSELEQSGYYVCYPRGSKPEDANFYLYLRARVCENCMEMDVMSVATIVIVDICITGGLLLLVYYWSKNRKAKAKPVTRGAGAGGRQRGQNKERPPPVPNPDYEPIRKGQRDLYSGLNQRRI
Chain of CD3 on non-edited CD3+ T cells of a human donor (human) (P09693 23-182, chain 2 of 3, further chain): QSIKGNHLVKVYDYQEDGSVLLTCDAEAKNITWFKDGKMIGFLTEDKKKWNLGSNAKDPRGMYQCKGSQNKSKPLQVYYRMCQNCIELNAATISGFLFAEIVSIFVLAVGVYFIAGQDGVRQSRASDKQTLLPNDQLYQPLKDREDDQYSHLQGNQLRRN
Chain of CD3 on non-edited CD3+ T cells of a human donor (human) (P04234 22-171, chain 3 of 3, further chain): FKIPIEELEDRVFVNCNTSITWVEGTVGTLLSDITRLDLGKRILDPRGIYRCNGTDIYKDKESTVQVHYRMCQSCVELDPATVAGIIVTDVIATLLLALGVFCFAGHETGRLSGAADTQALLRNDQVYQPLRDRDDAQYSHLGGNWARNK

Take “foralumab biosimilar (Creative Biolabs) (antibody)”: the percent killing in a complement-dependent cytotoxicity (CDC) assay on non-edited CD3+ T cells, 24 h, 30% human serum, antibody at 30-4000 ng/ml came out at 65%.

The values above are taken from patent US20220273720A1.
